Source: paper PMC7484162

Biological target: CD33 (UniProt P20138)
Chain of UniProt P20138 (P20138 18-364): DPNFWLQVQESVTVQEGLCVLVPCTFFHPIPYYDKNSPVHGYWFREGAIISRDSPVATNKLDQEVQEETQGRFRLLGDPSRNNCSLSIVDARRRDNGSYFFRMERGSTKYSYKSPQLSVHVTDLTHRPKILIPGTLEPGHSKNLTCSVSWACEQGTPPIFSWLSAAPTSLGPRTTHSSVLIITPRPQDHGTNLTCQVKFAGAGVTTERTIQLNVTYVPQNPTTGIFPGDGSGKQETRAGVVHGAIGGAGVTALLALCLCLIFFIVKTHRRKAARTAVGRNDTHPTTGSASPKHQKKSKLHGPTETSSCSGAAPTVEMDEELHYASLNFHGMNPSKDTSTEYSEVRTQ

Kd: 0.0256 µM
Substance: cam16-wt15–33 TriKE (second-generation Tri-specific Killer Engager) (from UniProt P40933 49-162)
